In the supplement of paper PMC11908140:

B1: library; numbered along this chain (parent)
chain: MRKPRAAVGSGHRKQAASQEGRQKHAKNNSQAKPSACDGLARQPEEVVLQASVSSYHLFRDVAEVTAFRGSLLSWYDQEKRDLPWRRRAEDEMDLDRRAYAVWVSEVMLQQTQVATVINYYTGWMQKWPTLQDLASASLEEVNQLWAGLGYYSRGRRLQEGARKVVEELGGHMPRTAETLQQLLPGVGRYTAGAIASIAFGQATGVVDGNVARVLCRVRAIGADPSSTLVSQQLWGLAQQLVDPARPGDFNQAAMELGATVCTPQRPLCSQCPVESLCRARQRVEQEQLLASGSLSGSPDVEECAPNTGQCHLCLPPSEPWDQTLGVVNFPRKASRKPPREESSATCVLEQPGALGAQILLVQRPNSGLLAGLWEFPSVTWEPSEQLQRKALLQELQRWAGPLPATHLRHLGEVVHTFSHIKLTYQVYGLALEGQTPVTTVPPGARWLTQEEFHTAAVSTAMKKVFRVYQGQQPGTCMGSKRSQVSSPCSRKKPRMGQQVLDNFFRSHISTDAHSLNSAAQ

Variants of: B1
Test: 8OG:A repair function score (normalized; synonymous = 0, nonsense = -1) (normalized log-likelihood score); higher = more repair activity (WT-like)
Conditions: with 8OG:A DNA repair reporter (GFP) in HEK-293 MUTYH KO cells
Outline: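 GFP+ (repair) and GFP− bins of viable mCherry+ cells were collected at 72 h from MUTYH knockout HEK-293 cells bearing lentiviral MUTYH cDNA NNN codon-scan libraries in 10 pg/ml doxycycline, co-transfected with an 8OG:A GFP repair reporter and mCherry. Tile amplicons were sequenced, and per-tile Rosace fitness scores were normalized to a repair function score anchored on synonymous and nonsense distributions. Synonymous medians were set to 0 and nonsense to -1, with variants under 300 counts per million at the start removed.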
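Note: cells sorted at 72 h after reporter transfection.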

8OG:A repair function score, by site and new letter:
A220: T -0.62, K -0.891, Q -0.691, D -0.821, P -0.978, I -0.848, G -0.13, Y -0.75, R -0.747, V -0.57, C -0.411, N -0.671, E -0.465, W -0.836, M -0.551, L -0.81, H -0.555, F -0.676, S -0.411
V211: Y -0.329, W -0.594
R213: W -1, C -1.03, D -1.01, Y -0.997, F -1.01, L -1.01, T -1.01, S -1.01, V -1.01, N -0.963, A -1.02, I -0.997, H -1.03, M -1.04, Q -1.02, K -1, G -1.01, E -1.03, P -1.03
G222: H -0.56, P -0.731, S -0.439, Y -0.461, R -0.436, N -0.593, A -0.213, I -0.608, W -0.349, F -0.564, L -0.623, V -0.622, Q -0.443, K -0.495, E -0.565, M -0.381, T -0.547, D -0.733, C -0.509
D224: L -0.947, C -0.955, T -0.955, S -0.964, I -0.934, V -0.988, H -0.924, K -0.928, W -0.942, M -0.995, F -0.955, N -0.918, P -0.861, R -0.978, E -0.936, Y -0.939, Q -0.87, A -0.954, G -0.936
T228: S 0.124, I -0.152, K 0.0779, A 0.0743, E 0.0521, R 0.329, F -0.051, N -0.0359, C -0.0551, W -0.106, V 0.153, Q -0.217, G 0.0678, D -0.245, M 0.0193, Y -0.0271, L 0.00837, P 0.212, H 0.457
V214: I -0.231, A -0.504, G -0.9, N -0.833, K -0.957, L -0.0688, M -0.207, Y -0.782, S -0.707, F -0.287, D -1.02, P -1.01, Q -0.911, R -1.01, W -0.258, T -0.495, E -0.927, C -0.56, H -0.795
A212: M -0.344, R 0.0203, V -0.0975, N -0.24, Q -0.0874, F -0.426, H -0.341, D -0.814, L -0.264, C -0.00168, S -0.131, P -0.961, G -0.254, Y -0.62, E 0.196, I -0.333, T -0.0386, K -0.0378, W -0.596
S227: F -0.188, K 0.0372, H -0.197, N 0.126, T 0.0756, P -0.658, V -0.241, D 0.49, I -0.232, W -0.244, Q -0.0353, A -0.0215, L -0.119, C -0.0498, R -0.103, G -0.0911, E -0.452, Y -0.307
L229: C -0.201, G -0.0206, E -0.064, I -0.0293, F -0.0261, H 0.287, M -0.0886, K 0.076, A 0.087, D -0.158
S226: P -0.642, W -0.231, Y -0.198, V -0.247, Q 0.176, R 0.00193, G -0.00798, M -0.173, N 0.261, T -0.0677, K 0.026, F -0.371, L -0.314, I -0.309, E 0.00732, C -0.132, D -0.146, H 0.0371, A 0.0017
R219: V -0.809, N -0.877, E -0.837, W -0.783, D -0.946, Y -0.556, Q -0.682, I -0.887, K -0.381, S -0.772, L -0.542, H -0.593, T -0.638, F -0.485, C -0.563, M -0.571, G -0.758, A -0.563, P -1.02
A223: F -0.516, D -0.631, R 0.032, E -0.219, C -0.145, Q -0.0573, G -0.111, N -0.465, W -0.73, M -0.321, T -0.118, I -0.454, Y -0.608, K -0.118, S -0.27, V -0.38, H -0.196, P -0.418, L -0.498
C216: D -0.949, Q -0.579, Y -0.886, F -0.905, H -0.687, A -0.252, V -0.649, K -0.969, N -0.84, M -0.646, P -0.98, L -0.469, I -0.57, R -0.931, T -0.335, G -0.663, S -0.137, E -0.808, W -1
V218: N -0.444, L -0.178, Y -0.62, R -1.03, E -0.985, P -1.04, C -0.211, W -0.74, I -0.196, M 0.0454, H -0.41, S -0.374, F -0.436, K -1, Q -0.472, T -0.283, G -0.74, A -0.268, D -0.983
I221: L -0.449, Q -1.03, A -0.993, W -0.622, M -0.523, H -0.866, Y -0.63, E -0.989, S -0.991, D -1.02, V -0.347, N -0.933, F -0.597, R -0.972, K -0.986, C -0.728, G -0.993, P -1.01, T -0.889
R217: T -1.02, N -1.04, D -1.02, P -1.04, Q -1.03, Y -1.01, G -1.01, L -1.01, W -0.993, H -0.835, M -0.936, E -1.03, F -1.04, C -1.03, V -1.01, S -1.03, A -1.02, K -1.03, I -1.03
L215: R -1.02, F -0.325, H -0.901, Q -0.871, E -0.98, S -0.957, G -0.867, M -0.129, D -0.968, N -0.967, C -0.768, I -0.331, W -0.704, V -0.573, Y -0.0538, A -0.788, T -0.86, K -1.02, P -1.03
P225: Q -0.132, K -0.284, V -0.0099, H -0.374, A -0.238, S -0.0602, G -0.342, I 0.0375, M -0.186, N -0.234, W -0.322, D -0.53, Y 0.0138, R -0.147, C -0.182, L 0.119, E -0.604, F -0.222, T -0.0501
